How the values were obtained:
人IL-12 (Bio IL-12) = target: T1, 人IL-12 (Bio IL-12) (human, UniProt P29459 23-219; P29460 23-328, biotin-labelled (Bio IL-12); sites not stated); test: ELISA: Bio IL-12 at 1 μg/ml captured on Neutravidin, antibody in serial dilution
T1 construct: the p35 subunit is supplied from general knowledge
T1 sequence (looked up) 1: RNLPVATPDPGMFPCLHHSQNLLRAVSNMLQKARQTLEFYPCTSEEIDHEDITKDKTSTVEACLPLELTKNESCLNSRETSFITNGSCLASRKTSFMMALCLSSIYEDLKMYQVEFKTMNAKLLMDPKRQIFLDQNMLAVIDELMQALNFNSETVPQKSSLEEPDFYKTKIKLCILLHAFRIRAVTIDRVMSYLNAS
T1 sequence (looked up) 2: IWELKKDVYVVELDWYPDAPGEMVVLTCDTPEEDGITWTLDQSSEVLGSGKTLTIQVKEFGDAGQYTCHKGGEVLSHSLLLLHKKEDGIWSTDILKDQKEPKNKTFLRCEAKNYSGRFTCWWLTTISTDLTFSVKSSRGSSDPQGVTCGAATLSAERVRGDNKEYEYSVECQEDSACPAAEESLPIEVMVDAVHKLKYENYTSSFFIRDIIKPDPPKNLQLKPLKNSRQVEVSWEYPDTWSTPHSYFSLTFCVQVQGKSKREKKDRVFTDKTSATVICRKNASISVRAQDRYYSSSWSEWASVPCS

人IL-23 (Bio IL-23) = target: T2, 人IL-23 (Bio IL-23) (human, UniProt Q9NPF7 20-189; P29460 23-328, biotin-labelled (Bio IL-23); sites not stated); test: ELISA: Bio IL-23 at 1 μg/ml captured on Neutravidin, antibody in serial dilution
T2 construct: also called hIL-23
T2 sequence (looked up) 1: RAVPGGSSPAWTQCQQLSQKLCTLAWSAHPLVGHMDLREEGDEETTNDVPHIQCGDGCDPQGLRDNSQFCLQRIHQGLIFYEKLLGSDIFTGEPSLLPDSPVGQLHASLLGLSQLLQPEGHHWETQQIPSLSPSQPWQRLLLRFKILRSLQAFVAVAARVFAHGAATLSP
T2 sequence (looked up) 2: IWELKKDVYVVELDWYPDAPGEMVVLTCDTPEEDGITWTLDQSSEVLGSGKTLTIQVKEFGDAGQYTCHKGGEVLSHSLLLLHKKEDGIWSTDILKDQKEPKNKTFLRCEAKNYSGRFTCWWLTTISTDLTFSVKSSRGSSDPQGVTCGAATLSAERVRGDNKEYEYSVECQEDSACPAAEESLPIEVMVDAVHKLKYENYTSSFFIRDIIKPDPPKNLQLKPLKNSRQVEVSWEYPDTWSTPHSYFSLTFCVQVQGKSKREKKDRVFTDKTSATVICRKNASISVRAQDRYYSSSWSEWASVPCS

B1: 抗人IL-23P19单克隆抗体(第一抗体) (antibody, V domains shown)
VH: QEQLEESGGGLVKPGGTLTLTCKASGFDFTTYNYMCWVRQAPGKGLEWIACIYTTKTNTWYASWAKGRFTISKTSSTTVTLQMTSLTAADTATYFCARGGWDNLSLWGPGTLVTVSS
VL: AALTQTPASVSAAVGGTVTIKCQSSQSVYSNNYLAWYQQKPGQPPKVLIYAASTLASGVPSRFSGSGSGTQFTLTISGVQCDDAATYYCLGGYDDDAVFGGGTEVVVKG
notes: also called 抗人IL-23第一抗体; 包被抗体
- binding result (人IL-12 (Bio IL-12)): no binding
- binding result (人IL-23 (Bio IL-23)): binds
